Experimental data: PMC11419269

Key:
[1] = target: oAβ42 Aβ42 (Homo sapiens) (UniProt P05067); settings: cited from earlier work
C1q (Homo sapiens) = C1q (Homo sapiens) (UniProt P02745); test: ELISA; settings: cited from earlier work
TREM2 WT (human) [2] = target: TREM2 WT (human) (UniProt Q9NZC2); test: BLI; sequential competition: biotinylated TREM2 WT on SA biosensors, first ligand or no ligand at one concentration (500 nM apoE2, apoE4, oAβ42 or IL-34; 1000 nM C1q), buffer, then second ligand
TREM2 WT (human), sequence (Q9NZC2 19-174): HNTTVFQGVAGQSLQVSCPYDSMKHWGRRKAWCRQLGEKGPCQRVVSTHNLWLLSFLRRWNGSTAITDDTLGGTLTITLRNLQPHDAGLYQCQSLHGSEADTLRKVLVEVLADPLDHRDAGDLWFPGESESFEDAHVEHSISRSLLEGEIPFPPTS

TREM2 R47H (human) = TREM2 R47H (human) (UniProt Q9NZC2); test: BLI; biotinylated TREM2 WT and variants immobilised on SA biosensors; C1q 62.5 – 1000 nM in PBS with 0.1% BSA and 0.005% Tween-20; 1:1 kinetic fits
TREM2 R47H (human), sequence (Q9NZC2 19-174 R47H): as the sequence (Q9NZC2 19-174) above, with R29H counted along it

TREM2 M41D (human) = TREM2 M41D (human) (UniProt Q9NZC2); test: as above
TREM2 M41D (human), sequence (Q9NZC2 19-230 M41D): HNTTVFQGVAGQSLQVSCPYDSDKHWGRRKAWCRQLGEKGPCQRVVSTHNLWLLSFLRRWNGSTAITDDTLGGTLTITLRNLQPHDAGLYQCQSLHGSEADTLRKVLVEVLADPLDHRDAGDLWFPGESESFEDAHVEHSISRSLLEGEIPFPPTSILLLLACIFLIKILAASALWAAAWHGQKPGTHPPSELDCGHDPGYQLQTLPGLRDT

TREM2 WT (human) [3] = target: TREM2 WT (human) (UniProt Q9NZC2); test: as above
TREM2 L71D (human) = TREM2 L71D (human) (UniProt Q9NZC2); test: as above
TREM2 L71D (human), sequence (Q9NZC2 19-230 L71D): as the sequence (Q9NZC2 19-230 M41D) above, with D23M, L53D counted along it

TREM2 R62H (human) = TREM2 R62H (human) (UniProt Q9NZC2); test: as above
TREM2 R62H (human), sequence (Q9NZC2 19-174 R62H): as the sequence (Q9NZC2 19-174) above, with R44H counted along it

TREM2 F74D (human) = TREM2 F74D (human) (UniProt Q9NZC2); test: as above
TREM2 F74D (human), sequence (Q9NZC2 19-230 F74D): as the sequence (Q9NZC2 19-230 M41D) above, with D23M, F56D counted along it

TREM2, sequence (Q9NZC2 19-174): as the sequence (Q9NZC2 19-174) above
C1q (Homo sapiens), sequence (P02745 23-245, chain 1 of 3): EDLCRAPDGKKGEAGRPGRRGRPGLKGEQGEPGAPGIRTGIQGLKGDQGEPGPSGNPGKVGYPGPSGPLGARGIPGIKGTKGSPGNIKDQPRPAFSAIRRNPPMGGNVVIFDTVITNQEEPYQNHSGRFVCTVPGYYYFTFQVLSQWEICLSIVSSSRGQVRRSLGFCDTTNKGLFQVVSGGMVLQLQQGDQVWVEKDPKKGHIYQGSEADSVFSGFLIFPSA
C1q (Homo sapiens), sequence (P02746 28-253, chain 2 of 3, further chain): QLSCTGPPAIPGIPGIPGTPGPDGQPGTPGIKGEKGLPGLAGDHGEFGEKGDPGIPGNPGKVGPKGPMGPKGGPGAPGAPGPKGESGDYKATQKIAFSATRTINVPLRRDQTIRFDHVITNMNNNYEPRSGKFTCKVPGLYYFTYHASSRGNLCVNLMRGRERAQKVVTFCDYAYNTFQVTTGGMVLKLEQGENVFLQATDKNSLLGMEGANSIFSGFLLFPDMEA
C1q (Homo sapiens), sequence (P02747 29-245, chain 3 of 3, further chain): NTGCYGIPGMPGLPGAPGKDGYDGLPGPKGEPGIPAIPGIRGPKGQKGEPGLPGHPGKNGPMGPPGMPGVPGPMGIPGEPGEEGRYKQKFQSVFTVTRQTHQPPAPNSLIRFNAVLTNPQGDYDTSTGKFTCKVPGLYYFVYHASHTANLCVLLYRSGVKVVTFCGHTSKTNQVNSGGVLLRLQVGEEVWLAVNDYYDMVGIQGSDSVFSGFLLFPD

Substance	Kd [1] [nM]	Kd (C1q (Homo sapiens)) [nM]	percent decrease of apoE2 binding to TREM2 after pre-binding 1000 nM C1q (TREM2 WT (human) [2]) [%]	Kd (TREM2 R47H (human)) [nM]	Kd (TREM2 M41D (human)) [nM]	Kd (TREM2 WT (human) [3]) [nM]	Kd (TREM2 L71D (human)) [nM]	Kd (TREM2 R62H (human)) [nM]	Kd (TREM2 F74D (human)) [nM]
TREM2 (from UniProt Q9NZC2)	526	7.35							
complement C1q (complex)			11.4	180	2540	650	58	1660	110
